We go through 15 molecules from patent US20260201064A1 (ISU ABXIS, published 2026).

T1: recombinant human ASM protein (human, UniProt P17405 47-630)
T1 construct: Recombinant human ASM in solution; also called acid sphingomyelinase (ASM) protein
T1 sequence: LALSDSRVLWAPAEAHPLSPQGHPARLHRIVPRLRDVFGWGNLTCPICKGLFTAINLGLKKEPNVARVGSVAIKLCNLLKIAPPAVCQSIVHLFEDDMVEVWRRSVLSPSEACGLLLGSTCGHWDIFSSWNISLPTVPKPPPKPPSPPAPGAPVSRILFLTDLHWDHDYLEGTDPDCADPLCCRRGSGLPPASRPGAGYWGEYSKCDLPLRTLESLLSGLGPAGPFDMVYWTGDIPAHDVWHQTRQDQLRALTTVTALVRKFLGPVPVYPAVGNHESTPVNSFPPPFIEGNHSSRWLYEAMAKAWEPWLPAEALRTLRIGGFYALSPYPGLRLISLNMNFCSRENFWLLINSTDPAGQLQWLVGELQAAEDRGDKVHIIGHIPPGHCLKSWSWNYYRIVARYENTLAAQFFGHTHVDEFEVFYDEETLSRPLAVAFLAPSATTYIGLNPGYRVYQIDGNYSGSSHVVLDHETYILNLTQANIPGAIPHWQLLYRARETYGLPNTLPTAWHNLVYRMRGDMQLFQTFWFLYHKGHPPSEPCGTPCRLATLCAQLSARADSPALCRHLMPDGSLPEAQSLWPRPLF

B1: #9104a-A1 (antibody, human IgG4 S228P, lambda, V domains shown)
VH: EVQLLESGGGLVQPGGSLRLSCAASGFTFSNYYMSWVRQAPGKGLEWVSGIYYGNGIPYYADSVKDRFTISRDNSKNTLYLQMNSLRAEDTAVYYCARDTPGFDYWGQGTLVTVSS
VL: QSVLTQPPSASGTPGQRVTISCTGSSSNIGNNAVNWYQQLPGTAPKLLIYYDMFRPGGVPDRFSGSKSGTSASLAISGLRSEDEADYYCGAWDYSLSAYVFGGGTKLTVLG
notes: VH of #9104v-H10 with VL of #9104v-L20; full-length IgG, lambda
B2: #9104a-B1 (antibody, human IgG4 S228P, lambda, V domains shown)
VH: EVQLLESGGGLVQPGGSLRLSCAASGFTFSNYYMSWVRQAPGKGLEWVSGIYYGNGIPYYADSVKDRFTISRDNSKNTLYLQMNSLRAEDTAVYYCARDTPGFDYWGQGTLVTVSS
VL: QSVLTQPPSASGTPGQRVTISCTGSSSNIGNNAVNWYQQLPGTAPKLLIYYDMFRPNGVPDRFSGSKSGTSASLAISGLRSEDEADYYCGAWDYSLSAYVFGGGTKLTVLG
notes: VH of #9104v-H10 with VL of #9104v-L21; full-length IgG, lambda
B3: #9104a-A7 (antibody, human IgG4 S228P, lambda, V domains shown)
VH: EVQLLESGGGLVQPGGSLRLSCAASGFTFSNYYMSWVRQAPGKGLEWVSGVYYGSGTPYYADSVKGRFTISRDNSKNTLYLQMNSLRAEDTAVYYCARDTPGFDYWGQGTLVTVSS
VL: QSVLTQPPSASGTPGQRVTISCTGSSSNIGNNAVNWYQQLPGTAPKLLIYYDMFRPGGVPDRFSGSKSGTSASLAISGLRSEDEADYYCGAWDYSLSAYVFGGGTKLTVLG
notes: VH of #9104v-H31 with VL of #9104v-L20; full-length IgG, lambda
B4: #9104a-A3 (antibody, human IgG4 S228P, lambda, V domains shown)
VH: EVQLLESGGGLVQPGGSLRLSCAASGFTFSNYYMSWVRQAPGKGLEWVSGIYYGSGIPYYANSVKGRFTISRDNSKNTLYLQMNSLRAEDTAVYYCARDTPGFDYWGQGTLVTVSS
VL: QSVLTQPPSASGTPGQRVTISCTGSSSNIGNNAVNWYQQLPGTAPKLLIYYDMFRPGGVPDRFSGSKSGTSASLAISGLRSEDEADYYCGAWDYSLSAYVFGGGTKLTVLG
notes: VH of #9104v-H13 with VL of #9104v-L20; full-length IgG, lambda
B5: #9104a-B6 (antibody, human IgG4 S228P, lambda, V domains shown)
VH: EVQLLESGGGLVQPGGSLRLSCAASGFTFSNYYMSWVRQAPGKGLEWVSGTYYDSGYVYYADSVKGRFTISRDNSKNTLYLQMNSLRAEDTAVYYCARDTPGFDYWGQGTLVTVSS
VL: QSVLTQPPSASGTPGQRVTISCTGSSSNIGNNAVNWYQQLPGTAPKLLIYYDMFRPNGVPDRFSGSKSGTSASLAISGLRSEDEADYYCGAWDYSLSAYVFGGGTKLTVLG
notes: VH of #9104v-H27 with VL of #9104v-L21; full-length IgG, lambda
B6: #9104a-B4 (antibody, human IgG4 S228P, lambda, V domains shown)
VH: EVQLLESGGGLVQPGGSLRLSCAASGFTFSNYYMSWVRRAPGKGLEWVSGIYYGSGTPYYAASVKGRFTISRDNSKNTLYLQMNSLRAEDTAVYYCARDTPGFDYWGQGTLVTVSS
VL: QSVLTQPPSASGTPGQRVTISCTGSSSNIGNNAVNWYQQLPGTAPKLLIYYDMFRPNGVPDRFSGSKSGTSASLAISGLRSEDEADYYCGAWDYSLSAYVFGGGTKLTVLG
notes: VH of #9104v-H17 with VL of #9104v-L21; full-length IgG, lambda
B7: #9104a-B5 (antibody, human IgG4 S228P, lambda, V domains shown)
VH: EVQLLESGGGLVQPGGSLRLSCAASGFTFSNYYMSWVRQAPGKGLEWVSGIYYGSGVPYYADSVKGRFTISRDNSKNTLYLQMNSLRAEDTAVYYCARDTPGFDYWGQGTLVTVSS
VL: QSVLTQPPSASGTPGQRVTISCTGSSSNIGNNAVNWYQQLPGTAPKLLIYYDMFRPNGVPDRFSGSKSGTSASLAISGLRSEDEADYYCGAWDYSLSAYVFGGGTKLTVLG
notes: VH of #9104v-H19 with VL of #9104v-L21; full-length IgG, lambda
B8: #9104a-B7 (antibody, human IgG4 S228P, lambda, V domains shown)
VH: EVQLLESGGGLVQPGGSLRLSCAASGFTFSNYYMSWVRQAPGKGLEWVSGVYYGSGTPYYADSVKGRFTISRDNSKNTLYLQMNSLRAEDTAVYYCARDTPGFDYWGQGTLVTVSS
VL: QSVLTQPPSASGTPGQRVTISCTGSSSNIGNNAVNWYQQLPGTAPKLLIYYDMFRPNGVPDRFSGSKSGTSASLAISGLRSEDEADYYCGAWDYSLSAYVFGGGTKLTVLG
notes: VH of #9104v-H31 with VL of #9104v-L21; full-length IgG, lambda
B9: #9104a-B3 (antibody, human IgG4 S228P, lambda, V domains shown)
VH: EVQLLESGGGLVQPGGSLRLSCAASGFTFSNYYMSWVRQAPGKGLEWVSGIYYGSGIPYYANSVKGRFTISRDNSKNTLYLQMNSLRAEDTAVYYCARDTPGFDYWGQGTLVTVSS
VL: QSVLTQPPSASGTPGQRVTISCTGSSSNIGNNAVNWYQQLPGTAPKLLIYYDMFRPNGVPDRFSGSKSGTSASLAISGLRSEDEADYYCGAWDYSLSAYVFGGGTKLTVLG
notes: VH of #9104v-H13 with VL of #9104v-L21; full-length IgG, lambda
B10: #9104a-A2 (antibody, human IgG4 S228P, lambda, V domains shown)
VH: EVQLLESGGGLVQPGGSLRLSCAASGFTFSNYYMSWVRQAPGKGLEWVSGIYYGSGIPYYADSVKERFTISRDNSKNTLYLQMNSLRAEDTAVYYCARDTPGFDYWGQGTLVTVSS
VL: QSVLTQPPSASGTPGQRVTISCTGSSSNIGNNAVNWYQQLPGTAPKLLIYYDMFRPGGVPDRFSGSKSGTSASLAISGLRSEDEADYYCGAWDYSLSAYVFGGGTKLTVLG
notes: VH of #9104v-H11 with VL of #9104v-L20; full-length IgG, lambda
B11: #9104a-A4 (antibody, human IgG4 S228P, lambda, V domains shown)
VH: EVQLLESGGGLVQPGGSLRLSCAASGFTFSNYYMSWVRRAPGKGLEWVSGIYYGSGTPYYAASVKGRFTISRDNSKNTLYLQMNSLRAEDTAVYYCARDTPGFDYWGQGTLVTVSS
VL: QSVLTQPPSASGTPGQRVTISCTGSSSNIGNNAVNWYQQLPGTAPKLLIYYDMFRPGGVPDRFSGSKSGTSASLAISGLRSEDEADYYCGAWDYSLSAYVFGGGTKLTVLG
notes: VH of #9104v-H17 with VL of #9104v-L20; full-length IgG, lambda
B12: #9104a-A5 (antibody, human IgG4 S228P, lambda, V domains shown)
VH: EVQLLESGGGLVQPGGSLRLSCAASGFTFSNYYMSWVRQAPGKGLEWVSGIYYGSGVPYYADSVKGRFTISRDNSKNTLYLQMNSLRAEDTAVYYCARDTPGFDYWGQGTLVTVSS
VL: QSVLTQPPSASGTPGQRVTISCTGSSSNIGNNAVNWYQQLPGTAPKLLIYYDMFRPGGVPDRFSGSKSGTSASLAISGLRSEDEADYYCGAWDYSLSAYVFGGGTKLTVLG
notes: VH of #9104v-H19 with VL of #9104v-L20; full-length IgG, lambda
B13: #9104a-A8 (antibody, human IgG4 S228P, lambda, V domains shown)
VH: EVQLLESGGGLVQPGGSLRLSCAASGFTFSNYYMSWVRQAPGKGLEWVSGVYYPSGNPYYADSVKGRFTISRDNSKNTLYLQMNSLRAEDTAVYYCARDTPGFDYWGQGTLVTVSS
VL: QSVLTQPPSASGTPGQRVTISCTGSSSNIGNNAVNWYQQLPGTAPKLLIYYDMFRPGGVPDRFSGSKSGTSASLAISGLRSEDEADYYCGAWDYSLSAYVFGGGTKLTVLG
notes: VH of #9104v-H33 with VL of #9104v-L20; full-length IgG, lambda
B14: #9104a-A6 (antibody, human IgG4 S228P, lambda, V domains shown)
VH: EVQLLESGGGLVQPGGSLRLSCAASGFTFSNYYMSWVRQAPGKGLEWVSGTYYDSGYVYYADSVKGRFTISRDNSKNTLYLQMNSLRAEDTAVYYCARDTPGFDYWGQGTLVTVSS
VL: QSVLTQPPSASGTPGQRVTISCTGSSSNIGNNAVNWYQQLPGTAPKLLIYYDMFRPGGVPDRFSGSKSGTSASLAISGLRSEDEADYYCGAWDYSLSAYVFGGGTKLTVLG
notes: VH of #9104v-H27 with VL of #9104v-L20; full-length IgG, lambda
B15: #9104a-B2 (antibody, human IgG4 S228P, lambda, V domains shown)
VH: EVQLLESGGGLVQPGGSLRLSCAASGFTFSNYYMSWVRQAPGKGLEWVSGIYYGSGIPYYADSVKERFTISRDNSKNTLYLQMNSLRAEDTAVYYCARDTPGFDYWGQGTLVTVSS
VL: QSVLTQPPSASGTPGQRVTISCTGSSSNIGNNAVNWYQQLPGTAPKLLIYYDMFRPNGVPDRFSGSKSGTSASLAISGLRSEDEADYYCGAWDYSLSAYVFGGGTKLTVLG
notes: VH of #9104v-H11 with VL of #9104v-L21; full-length IgG, lambda

The target of the assay is T1, recombinant human ASM protein. Kind of assay: BLI (Octet), antibody on AHC sensor. The method, then: The binding affinity, to the ASM protein, of the produced antibodies specifically binding to the ASM protein and the interactive dynamics therebetween were measured using an Octet® QK384 system (Pall Life Sciences).
First, an antibody specifically binding to the ASM protein produced in Example 1 was captured using an anti-human IgG Fc capture (AHC) biosensor, and 1.25, 2.5, 5, 10, or 20 nM recombinant human ASM protein solution was added thereto. […] The association constant (Kₐ), dissociation constant (Kd), and equilibrium dissociation constant (KD) for each antibody were determined using Octet® analysis software (Pall Life® Sciences). As a result, the binding affinities, to the human ASM protein, of the antibodies with mutations in the heavy chain CDR regions of the antibody #9104 as depicted in Table 1 are shown in Table 5, and the binding affinities, to the human ASM protein, of the antibodies with mutations of the light chain CDR regions in the antibody #9104 as depicted in Table 2 are shown in Table 6.
After the small-scale expression in the ExpiCHO cell line as described above, the binding affinity to the human ASM protein was investigated as described in Experimental Example 1. Specifically, the antibody produced by a combination of #9104v-H33 heavy chain variable region and #9104v-L23 light chain variable region was not expressed and thus excluded in the analysis of binding affinity to ASM protein.
Broadly, the Kd is the equilibrium constant for the complex coming apart. The koff is the rate constant with which the complex falls apart. What is called kon is a measure of how fast the partners come together. Turning to B1, the Kd came out at 51.8 pM, the koff was determined as 1.14e-05 s⁻¹ and the kon was 220000 M⁻¹ s⁻¹.

For B2, the Kd was 137 pM, the koff was 3.45e-05 s⁻¹ and the kon came out at 253000 M⁻¹ s⁻¹.

For the molecule B3, the Kd was determined as 35.4 pM, the koff was determined as 8.13e-06 s⁻¹ and the kon is 230000 M⁻¹ s⁻¹.

In the case of B4, the Kd was 27.7 pM, the koff was 5.48e-06 s⁻¹ and the kon stood at 198000 M⁻¹ s⁻¹.

For the molecule B5, the dissociation constant (Kd) worked out at 1140 pM, the koff came to 9.41e-05 s⁻¹ and the kon was found to be 82900 M⁻¹ s⁻¹.

As to B6, the dissociation constant (Kd) was determined as 153 pM, the off-rate constant (koff) turned out to be 3.74e-05 s⁻¹ and the kon came to 245000 M⁻¹ s⁻¹.

For B7, the dissociation constant (Kd) is under 1 pM, the koff was under 1e-07 s⁻¹ and the kon came out at 243000 M⁻¹ s⁻¹.

For the molecule B8, the dissociation constant (Kd) is 163 pM, the koff amounted to 4.07e-05 s⁻¹ and the kon came out at 250000 M⁻¹ s⁻¹.

With B9, the equilibrium dissociation constant (Kd) turned out to be 35.1 pM, the koff is 8.23e-06 s⁻¹ and the kon turned out to be 234000 M⁻¹ s⁻¹.

For B10, the dissociation constant Kd was 96.1 pM, the koff turned out to be 1.98e-05 s⁻¹ and the kon is 206000 M⁻¹ s⁻¹.

Take B11: the Kd came to 162 pM, the off-rate (koff) stood at 3.54e-05 s⁻¹ and the kon worked out at 219000 M⁻¹ s⁻¹.

On to B12, for which the Kd is 160 pM, the koff is 3.93e-05 s⁻¹ and the kon amounted to 246000 M⁻¹ s⁻¹.

Turning to B13, the Kd came out at 237 pM, the koff was 4.51e-05 s⁻¹ and the association rate constant (kon) was found to be 191000 M⁻¹ s⁻¹.

As to B14, the Kd is 768 pM, the koff was 6.96e-05 s⁻¹ and the kon came to 90600 M⁻¹ s⁻¹.

For the molecule B15, the dissociation constant (Kd) stood at 114 pM, the koff amounted to 3.03e-05 s⁻¹ and the kon was determined as 266000 M⁻¹ s⁻¹.
